The values below come from the supplement of paper PMC11246515.

This data set in a line: total protein half-life in vivo (active degradation + dilution); higher = more stable protein.
Where [1] appears, read: E. coli NCM3722 delta-clpP delta-lon delta-hslV, growth: N-lim chemostat, doubling time 6 h.
Setting [2] is: E. coli NCM3722 delta-clpP, growth: N-lim chemostat, doubling time 6 h.
The mark [3] stands for this setting: E. coli NCM3722 delta-hslV, growth: N-lim chemostat, doubling time 6 h.
The mark [4] stands for this setting: E. coli NCM3722 delta-lon, growth: N-lim chemostat, doubling time 6 h.
Setting [5] is: E. coli NCM3722 delta-smpB, growth: N-lim chemostat, doubling time 6 h.
Where [6] appears, read: wild type E. coli NCM3722, growth: C-lim chemostat, doubling time 3 h.
Where [7] appears, read: wild type E. coli NCM3722, growth: C-lim chemostat, doubling time 6 h.
Setting [8] is: wild type E. coli NCM3722, growth: C-lim chemostat, doubling time 12 h.
Setting [9] is: wild type E. coli NCM3722, growth: N-lim chemostat, doubling time 6 h.
The mark [10] stands for this setting: wild type E. coli NCM3722, growth: N-lim chemostat, doubling time 12 h.
Where [11] appears, read: wild type E. coli NCM3722, growth: P-lim chemostat, doubling time 6 h.
Setting [12] is: wild type E. coli NCM3722, growth: P-lim chemostat, doubling time 12 h.

± gives the standard deviation of the averaged measurements.

With “MIIRDENYFTDKYELTRTHSEVLEAVKVVKPGKTLDLGCGNGRNSLYLAANGYDVDAWDKNAMSIANVERIKSIENLDNLHTRVVDLNNLTFDRQYDFILSTVVLMFLEAKTIPGLIANMQRCTKPGGYNLIVAAMDTADYPCTVGFPFAFKEGELRRYYEGWERVKYNEDVGELHRTDANGNRIKLRFATMLARKK”, the “total protein half-life in vivo” value is, setting by setting: under setting [1], 5.25 ± 0.98 h; under setting [2], 4.08 ± 0.48 h; under setting [3], 4.13 ± 0.29 h; under setting [4], 5.98 ± 0.65 h; under setting [5], 3.94 ± 0.12 h; under setting [6], 2.93 ± 0.1 h. The “total protein half-life in vivo” value runs as follows: under setting [7], 5.19 ± 0.19 h; under setting [8], 8.23 ± 1.5 h; under setting [9], 4.09 ± 0.12 h; under setting [10], 6.9 ± 0.16 h; under setting [11], 6.01 ± 0.67 h; under setting [12], 11 ± 0.36 h.

“MKYQQLENLESGWKWKYLVKKHREGELITRYIEASAAQEAVDVLLSLENEPVLVNGWIDKHMNPELVNRMKQTIRARRKRHFNAEHQHTRKKSIDLEFIVWQRLAGLAQRRGKTLSETIVQLIEDAENKEKYANKMSSLKQDLQALLGKE [P0A8N0]”: the “total protein half-life in vivo” value was 5.544 ± 0.014 h under setting [2]; 4.69 ± 0.85 h under setting [3]; 5.46 ± 0.53 h under setting [4]; 4.27 ± 1.1 h under setting [5]; 3.13 ± 0.038 h under setting [6]; 5.74 ± 0.2 h under setting [7]. For the same sequence, the “total protein half-life in vivo” value by setting is: under setting [8], 10.9 ± 5.6 h; under setting [9], 3.21 ± 1.6 h; under setting [10], 10.7 ± 5.8 h; under setting [12], 9.592 ± 0.066 h.

With “MIRQVIQRISNPEASIESLQERRFWLQCERAYTWQPIYQTCGRLMAVELLTVVTHPLNPSQRLPPDRYFTEITVSHRMEVVKEQIDLLAQKADFFIEHGLLASVNIDGPTLIALRQQPKILRQIERLPWLRFELVEHIRLPKDSTFASMCEFGPLWLDDFGTGMANFSALSEVRYDYIKIARELFVMLRQSPEGRTLFSQLLHLMNRYCRGVIVEGVETPEEWRDVQNSPAFAAQGWFLSRPAPIETLNTAVLAL”, the “total protein half-life in vivo” value under setting [6] was determined as 0.512 ± 0.23 h.

Consider “MANKPSAEELKKNLSEMQFYVTQNHGTEPPFTGRLLHNKRDGVYHCLICDAPLFHSQTKYDSGCGWPSFYEPVSEESIRYIKDLSHGMQRIEIRCGNCDAHLGHVFPDGPQPTGERYCVNSASLRFTDGENGEEING [P0A746]”, for which the “total protein half-life in vivo” value stood at 3.48 ± 0.34 h under setting [2]; 3.1 ± 0.16 h under setting [3]; 3.91 ± 0.56 h under setting [4]; 2.55 ± 0.31 h under setting [5]; 1.95 ± 0.59 h under setting [6]; 4.02 ± 0.54 h under setting [7]. Also, the “total protein half-life in vivo” value came out at 5.47 ± 0.75 h under setting [8]; 3.22 ± 0.13 h under setting [9]; 4.64 ± 0.16 h under setting [10]; 2.79 ± 0.38 h under setting [11]; 6.29 ± 0.15 h under setting [12].

As for “MSSHPYVTQQNTPLADDTTLMSTTDLQSYITHANDTFVQVSGYTLQELQGQPHNMVRHPDMPKAAFADMWFTLKKGEPWSGIVKNRRKNGDHYWVRANAVPMVREGKISGYMSIRTRATDEEIAAVEPLYKALNAGRTSKRIHKGLVVRKGWLGKLPSLPLRWRARGVMTLMFILLAAMLWFVAAPVVTYILCALVVLLASACFEWQIVRPIENVAHQALKVATGERNSVEHLNRSDELGLTLRAVGQLGLMCRWLINDVSSQVSSVRNGSETLAKGTDELNEHTQQTVDNVQQTVATMNQMAASVKQNSATASAADKLSITASNAAVQGGEAMTTVIKTMDDIADSTQRIGTITSLINDIAFQTNILALNAAVEAARAGEQGKGFAVVAGEVRHLASRSANAANDIRKLIDASADKVQSGSQQVHAAGRTMEDIVAQVKNVTQLIAQISHSTLEQADGLSSLTRAVDELNLITQKNAELVEESAQVSAMVKHRASRLEDAVTVLH”, under setting [6], the “total protein half-life in vivo” value worked out at 2.72 ± 0.7 h.

With “MSFDPTGYTLAHEHLHIDLSGFKNNVDCRLDQYAFICQEMNDLMTRGVRNVIEMTNRYMGRNAQFMLDVMRETGINVVACTGYYQDAFFPEHVATRSVQELAQEMVDEIEQGIDGTELKAGIIAEIGTSEGKITPLEEKVFIAAALAHNQTGRPISTHTSFSTMGLEQLALLQAHGVDLSRVTVGHCDLKDNLDNILKMIDLGAYVQFDTIGKNSYYPDEKRIAMLHALRDRGLLNRVMLSMDITRRSHLKANGGYGYDYLLTTFIPQLRQSGFSQADVDVMLRENPSQFFQ”, the “total protein half-life in vivo” value amounted to 4.42 h under setting [1]; 6.12 h under setting [4]; 3.08 ± 0.51 h under setting [5]; 9.94 h under setting [8]; 4.97 h under setting [9]; 15.1 h under setting [12].

With “MVLGKPQTDPTLEWFLSHCHIHKYPSKSTLIHQGEKAETLYYIVKGSVAVLIKDEEGKEMILSYLNQGDFIGELGLFEEGQERSAWVRAKTACEVAEISYKKFRQLIQVNPDILMRLSAQMARRLQVTSEKVGNLAFLDVTGRIAQTLLNLAKQPDAMTHPDGMQIKITRQEIGQIVGCSRETVGRILKMLEDQNLISAHGKTIVVYGTR [P0ACJ8]”, the “total protein half-life in vivo” value reads like this: under setting [1], 5.31 ± 0.51 h; under setting [2], 5.17 ± 0.55 h; under setting [3], 4.68 ± 0.23 h; under setting [4], 4.86 ± 0.09 h; under setting [5], 4.55 ± 0.33 h; under setting [6], 2.92 ± 0.22 h. Also, the “total protein half-life in vivo” value came out at 5.84 ± 0.064 h under setting [7]; 10 ± 0.63 h under setting [8]; 4.582 ± 0.038 h under setting [9]; 7.59 ± 0.18 h under setting [10]; 5.09 ± 0.27 h under setting [11]; 9.72 ± 0.62 h under setting [12].

For the sequence “MKRPDYRTLQALDAVIRERGFERAAQKLCITQSAVSQRIKQLENMFGQPLLVRTVPPRPTEQGQKLLALLRQVELLEEEWLGDEQTGSTPLLLSLAVNADSLATWLLPALAPVLADSPIRLNLQVEDETRTQERLRRGEVVGAVSIQHQALPSCLVDKLGALDYLFVSSKPFAEKYFPNGVTRSALLKAPVVAFDHLDDMHQAFLQQNFDLPPGSVPCHIVNSSEAFVQLARQGTTCCMIPHLQIEKELASGELIDLTPGLFQRRMLYWHRFAPESRMMRKVTDALLDYGHKVLRQD [P0A8S1]”, the “total protein half-life in vivo” value was determined as 5.48 ± 0.31 h under setting [1]; 5.93 ± 1.3 h under setting [2]; 5.46 ± 0.27 h under setting [3]; 5.78 ± 0.57 h under setting [4]; 4.96 ± 0.39 h under setting [5]; 3.01 ± 0.31 h under setting [6]. The “total protein half-life in vivo” value stood at 11.6 ± 0.16 h under setting [8]; 5.84 ± 0.67 h under setting [9]; 9.72 ± 0.46 h under setting [10]; 6.03 ± 0.091 h under setting [11]; 13.4 ± 0.89 h under setting [12].
